Among the targets are SRY HMG box Y72C (Y127C) (Homo sapiens, UniProt Q05066 56-141, Y127C); SRY HMG box Y72H (Y127H) (Homo sapiens, UniProt Q05066 56-141, Y127H); SRY HMG box Y72F (Y127F) (Homo sapiens, UniProt Q05066 56-141, Y127F).
Assay in all cases: FRET titration; 15 C, 25 nM DNA; FRET titration: 10 mM potassium phosphate, 10 mM Tris-HCl, 140 mM KCl, 1 mM EDTA, 1 mM DTT, pH 8.4, 15 C, 25 nM DNA; PGE: 10 nM DNA, 20 nM protein, 0.5x TBE, 4
What all share (details): protein: recombinant; label: 5'-6-FAM (hexanyl linker) on upper strand; 5'-TAMRA (hexanyl linker) on lower strand; blunt

Among the data in publication PMC9360328, “Tenuous Transcriptional Threshold of Human Sex Determination. I. SRY and Swyer Syndrome at the Edge of Ambiguity” are Kd values, retold here.

Sequence of SRY HMG box Y72F (Y127F) (Q05066 56-141 Y127F): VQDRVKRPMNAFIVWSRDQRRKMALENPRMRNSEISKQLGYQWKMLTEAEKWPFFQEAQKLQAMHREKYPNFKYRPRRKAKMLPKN
Sequence of SRY HMG box Y72C (Y127C) (Q05066 56-141 Y127C): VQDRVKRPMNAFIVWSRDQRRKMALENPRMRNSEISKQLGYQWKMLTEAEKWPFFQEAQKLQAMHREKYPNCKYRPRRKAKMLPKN
Sequence of SRY HMG box Y72H (Y127H) (Q05066 56-141 Y127H): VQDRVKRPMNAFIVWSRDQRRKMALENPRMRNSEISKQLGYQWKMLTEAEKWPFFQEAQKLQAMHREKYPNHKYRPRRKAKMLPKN

B1: 15-bp consensus SRY site, FRET-labeled (dsDNA)
DNA 1: TCGGTGATTGTTCAG
DNA 2: CTGAACAATCACCGA
On to B1, for which the Kd came out at 21 ± 5 nM with SRY HMG box Y72C (Y127C), 19 ± 4 nM with SRY HMG box Y72H (Y127H) and 12 ± 3 nM with SRY HMG box Y72F (Y127F).
